These are literature values, as cited in paper PMC7878404.

The target in this data set is Bex1 50-75 (UniProt Q9R224).
Sequence of UniProt Q9R224 (Q9R224 50-75): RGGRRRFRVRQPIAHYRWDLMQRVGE

As to OMP (from UniProt P08523), the Kd is 150 µM.
